The numbers were not newly measured in article PMC4166557, which cites them from elsewhere.

In this data set the target is MLL MBM1 4-15 (Homo sapiens) (UniProt Q03164).

On to menin (from UniProt O00255), for which the equilibrium dissociation constant (Kd) was 56 nM.
